Reference: article PMC8565817

How the values were obtained:
[1] = target: Bemarituzumab (human); experiment: SPR
[2] = target: FPA144-F (the fucosylated version of bemarituzumab) (human); experiment: SPR

- Kd [1]: 9.2 nM
- Kd [2]: 207 nM
Substance: human Fc gamma receptor IIIa (V158)
